*1 amine or outer side, *2 acyl side, *3 side chain or, on linkers, in order; H or OH if unused. Where no end group is shown, it is not given here. Side-chain parts run from the residue outwards. [ ]: non-standard residue; d: D form. The star is where a group is joined. αMePhe(2-F) = C[C@](N)(Cc1ccccc1F)C(=O)O; γGlu = O=C(O)[C@H](CCC(=O)[*:2])N[*:1]; C14 diacid = O=C(O)CCCCCCCCCCCCC(=O)*; αMeY = C[C@](N)(Cc1ccc(O)cc1)C(=O)O; αMeL = CC(C)C[C@](C)(N)C(=O)O; Orn = NCCC[C@H](N)C(=O)O; Dap = NC[C@H](N)C(=O)O; AEEA = NCCOCCOCC(=O)O; Aib = CC(C)(N)C(=O)O
T1: human GIP receptor (human, UniProt P48546 22-466)
T1 sequence (looked up): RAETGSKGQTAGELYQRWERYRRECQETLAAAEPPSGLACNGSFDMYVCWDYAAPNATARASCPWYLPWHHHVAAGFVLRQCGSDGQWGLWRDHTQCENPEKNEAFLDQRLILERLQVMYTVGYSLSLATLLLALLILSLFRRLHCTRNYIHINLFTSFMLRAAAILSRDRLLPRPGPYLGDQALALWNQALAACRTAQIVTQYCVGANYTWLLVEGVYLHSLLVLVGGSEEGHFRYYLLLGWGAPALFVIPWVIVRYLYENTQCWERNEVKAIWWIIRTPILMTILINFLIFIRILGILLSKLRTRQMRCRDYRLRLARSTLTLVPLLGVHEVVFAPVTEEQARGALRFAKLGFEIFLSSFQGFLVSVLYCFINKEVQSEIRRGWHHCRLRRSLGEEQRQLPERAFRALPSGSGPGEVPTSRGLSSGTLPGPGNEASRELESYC


Experiments:
Experiment in all cases: cell-based or functional assay
human GLP-1 receptor = human GLP-1 receptor (human, UniProt P43220 24-463)
human GIP receptor = target: T1, human GIP receptor
human glucagon receptor = human glucagon receptor (human, UniProt P47871 26-477)

| Binder | cAMP EC50 (1.0% HSA) (human GLP-1 receptor) [nM] | cAMP EC50 (1.0% HSA) (human GIP receptor) [nM] | cAMP Emax (1.0% HSA) (human GIP receptor) [%] | cAMP EC50 (1.0% HSA) (human glucagon receptor) [µM] | cAMP Emax (1.0% HSA) (human GLP-1 receptor) [%] |
| --- | --- | --- | --- | --- | --- |
| Y[Aib]EGT[αMePhe(2-F)]TSDV[Dap]I[αMeL]LD[Orn]K([AEEA-AEEA-γGlu-C14 diacid])AQ[Aib]EFI[dE][αMeY]LIEGGK([AEEA-AEEA-γGlu-C14 diacid])SSGAPPPS-NH2 (N-terminus assumed; SMILES CC[C@H](C)[C@H](NC(=O)[C@H](CC(C)C)NC(=O)[C@](C)(Cc1ccc(O)cc1)NC(=O)[C@@H](CCC(=O)O)NC(=O)[C@@H](NC(=O)[C@H](Cc1ccccc1)NC(=O)[C@H](CCC(=O)O)NC(=O)C(C)(C)NC(=O)[C@H](CCC(N)=O)NC(=O)[C@H](C)NC(=O)[C@H](CCCCNC(=O)COCCOCCNC(=O)COCCOCCNC(=O)CC[C@H](NC(=O)CCCCCCCCCCCCC(=O)O)C(=O)O)NC(=O)[C@H](CCCN)NC(=O)[C@H](CC(=O)O)NC(=O)[C@H](CC(C)C)NC(=O)[C@](C)(CC(C)C)NC(=O)[C@@H](NC(=O)[C@H](CN)NC(=O)[C@@H](NC(=O)[C@H](CC(=O)O)NC(=O)[C@H](CO)NC(=O)[C@@H](NC(=O)[C@](C)(Cc1ccccc1F)NC(=O)[C@@H](NC(=O)CNC(=O)[C@H](CCC(=O)O)NC(=O)C(C)(C)NC(=O)[C@@H](N)Cc1ccc(O)cc1)[C@@H](C)O)[C@@H](C)O)C(C)C)[C@@H](C)CC)[C@@H](C)CC)C(=O)N[C@@H](CCC(=O)O)C(=O)NCC(=O)NCC(=O)N[C@@H](CCCCNC(=O)COCCOCCNC(=O)COCCOCCNC(=O)CC[C@H](NC(=O)CCCCCCCCCCCCC(=O)O)C(=O)O)C(=O)N[C@@H](CO)C(=O)N[C@@H](CO)C(=O)NCC(=O)N[C@@H](C)C(=O)N1CCC[C@H]1C(=O)N1CCC[C@H]1C(=O)N1CCC[C@H]1C(=O)N[C@@H](CO)C(N)=O) | 25.1 | 13.2 | 80.5 | – | – |
| YXEGTXTSDXSIXLDXKAQXEFIXXLIEGKPSSGAPPPS (Aib2, αMeF(2F)6, 4Pal10, αMeL13, Orn16, Aib20, D-Glu24, αMeY25; acylated K17, K30 (groups as in name); C-terminal amide) [Y-Aib-EGT-αMeF(2F)-TSD-4Pal-SI-αMeL-LD-Orn-K((2-[2-(2-Amino-ethoxy)-ethoxy]-acetyl)2-(γ-Glu)-CO-(CH2)12-CO2H)AQ-Aib-EFI-(D-Glu)-αMeY-LIEGK((2-[2-(2-Amino-ethoxy …, listing 1 of 2 here] | – | 1.12 | – | > 9.95 | 103 |
| YXEGTXTSDYXIXLDXKAQXEFIXXLIEGGKSSGAPPPS (Aib2, αMeF(2F)6, Aib11, αMeL13, Orn16, Aib20, D-Glu24, αMeY25; acylated K17, K31 (groups as in name); C-terminal amide) | 27.8 | 1.81 | 91.4 | > 9.95 | – |
| YXEGTXTSDXSIXLDXKAQXEFIXXLIEGGKSSGAPPPS (Aib2, αMeF(2F)6, OMeY10, αMeL13, Orn16, Aib20, D-Glu24, αMeY25; acylated K17, K31 (groups as in name); C-terminal amide) | 21.6 | 1.12 | – | > 9.95 | – |
| YXEGTXTSDXSIXLDXKAQXEFIXXLIEGGKSSGAPPPS (Aib2, αMeF(2F)6, 2Nal10, αMeL13, Orn16, Aib20, D-Glu24, αMeY25; acylated K17, K31 (groups as in name); C-terminal amide) | 39.3 | 4.55 | – | > 9.95 | – |
| YXEGTXTSDXSIXLDXKAQXEFIXXLIEGGKSSGAPPPS (Aib2, αMeF(2F)6, αMeL10, αMeL13, Orn16, Aib20, D-Glu24, αMeY25; acylated K17, K31 (groups as in name); C-terminal amide) | 100 | 15.8 | – | > 9.95 | – |
| YXEGTXTSDVXIXLDXKAQXEFIXXLIEGGKSSGAPPPS (Aib2, αMeF(2F)6, αMeS11, αMeL13, Orn16, Aib20, D-Glu24, αMeY25; acylated K17, K31 (groups as in name); C-terminal amide) | 33.7 | 16.6 | 81 | – | 91 |
| YXEGTXTSDXSIXLDXKAQXEFIXXLIEGKPSSGAPPPS (Aib2, αMeF(2F)6, 4Pal10, αMeL13, Orn16, Aib20, D-Glu24, αMeY25; acylated K17, K30 (groups as in name); C-terminal amide) [Y-Aib-EGT-αMeF(2F)-TSD-4Pal-SI-αMeL-LD-Orn-K((2-[2-(2-Amino-ethoxy)-ethoxy]-acetyl)2-(γ-Glu)-CO-(CH2)14-CH3)AQ-Aib-EFI-(D-Glu)-αMeY-LIEGK((2-[2-(2-Amino-ethoxy) …, listing 2 of 2 here] | – | 0.444 | – | > 9.95 | 103 |
| YXEGTXTSDXSIXLDXKAQXEFIXXLIEGGKSSGAPPPS (Aib2, αMeF(2F)6, Ac5c10, αMeL13, Orn16, Aib20, D-Glu24, αMeY25; acylated K17, K31 (groups as in name); C-terminal amide) | 13.2 | 3.53 | – | > 9.95 | 89.3 |
| YXEGTXTSDXSIXLDXKAQXEXIXXLIEGGKSSGAPPPS (Aib2, αMeF(2F)6, 4Pal10, αMeL13, Orn16, Aib20, 2ClPhe22, D-Glu24, αMeY25; acylated K17, K31 (groups as in name); C-terminal amide) | 36.9 | 0.744 | 92.8 | > 9.95 | 89.7 |

Source: patent publication US20230265151A1, “GIP/GLP1 CO-AGONIST COMPOUNDS” (priority 2020, published 2023)
